Data on 14 variants can be found in IntAct's records for PubMed 22252508.

B1: Tumor protein 63 (Homo sapiens), Q9H3D4 (parent)
chain: MNFETSRCATLQYCPDPYIQRFVETPAHFSWKESYYRSTMSQSTQTNEFLSPEVFQHIWDFLEQPICSVQPIDLNFVDEPSEDGATNKIEISMDCIRMQDSDLSDPMWPQYTNLGLLNSMDQQIQNGSSSTSPYNTDHAQNSVTAPSPYAQPSSTFDALSPSPAIPSNTDYPGPHSFDVSFQQSSTAKSATWTYSTELKKLYCQIAKTCPIQIKVMTPPPQGAVIRAMPVYKKAEHVTEVVKRCPNHELSREFNEGQIAPPSHLIRVEGNSHAQYVEDPITGRQSVLVPYEPPQVGTEFTTVLYNFMCNSSCVGGMNRRPILIIVTLETRDGQVLGRRCFEARICACPGRDRKADEDSIRKQQVSDSTKNGDGTKRPFRQNTHGIQMTSIKKRRSPDDELLYLPVRGRETYEMLLKIKESLELMQYLPQHTIETYRQQQQQQHQHLLQKQTSIQSPSSYGNSSPPLNKMNSMNKLPSVSQLINPQQRNALTPTTIPDGMGANIPMMGTHMPMAGDMNGLSPTQALPPPLSMPSTSHCTPPPPYPTDCSIVSFLARLGCSSCLDYFTTQGLTTIYQIEHYSMDDLASLKIPEQFRHAIWKGILDHRQLHEFSSPSHLLRTPSSASTVSVGSSETRGERVIDAVRFTLRQTISFPPRDEWNDFNFDMDARRNKQQRIKEEGE
partner: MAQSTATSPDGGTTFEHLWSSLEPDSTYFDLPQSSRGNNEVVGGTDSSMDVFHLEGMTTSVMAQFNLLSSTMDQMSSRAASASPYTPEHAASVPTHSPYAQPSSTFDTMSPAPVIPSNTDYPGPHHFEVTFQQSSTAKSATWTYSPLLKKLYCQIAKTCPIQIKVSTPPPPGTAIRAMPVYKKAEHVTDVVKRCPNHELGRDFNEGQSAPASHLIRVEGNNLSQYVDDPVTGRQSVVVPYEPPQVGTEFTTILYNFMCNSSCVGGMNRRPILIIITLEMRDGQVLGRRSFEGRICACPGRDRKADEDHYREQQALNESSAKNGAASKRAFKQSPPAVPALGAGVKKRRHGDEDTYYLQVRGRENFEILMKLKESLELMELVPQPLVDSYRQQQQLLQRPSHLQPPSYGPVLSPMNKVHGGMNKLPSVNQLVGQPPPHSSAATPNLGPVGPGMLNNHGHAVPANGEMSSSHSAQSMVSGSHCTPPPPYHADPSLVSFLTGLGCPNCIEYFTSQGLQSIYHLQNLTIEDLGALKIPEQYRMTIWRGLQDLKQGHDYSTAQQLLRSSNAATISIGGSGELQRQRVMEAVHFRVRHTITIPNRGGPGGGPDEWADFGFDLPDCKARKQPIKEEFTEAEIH
B2: Actin nucleation-promoting factor WAS (Homo sapiens), P42768 (parent)
chain: MSGGPMGGRPGGRGAPAVQQNIPSTLLQDHENQRLFEMLGRKCLTLATAVVQLYLALPPGAEHWTKEHCGAVCFVKDNPQKSYFIRLYGLQAGRLLWEQELYSQLVYSTPTPFFHTFAGDDCQAGLNFADEDEAQAFRALVQEKIQKRNQRQSGDRRQLPPPPTPANEERRGGLPPLPLHPGGDQGGPPVGPLSLGLATVDIQNPDITSSRYRGLPAPGPSPADKKRSGKKKISKADIGAPSGFKHVSHVGWDPQNGFDVNNLDPDLRSLFSRAGISEAQLTDAETSKLIYDFIEDQGGLEAVRQEMRRQEPLPPPPPPSRGGNQLPRPPIVGGNKGRSGPLPPVPLGIAPPPPTPRGPPPPGRGGPPPPPPPATGRSGPLPPPPPGAGGPPMPPPPPPPPPPPSSGNGPAPPPLPPALVPAGGLAPGGGRGALLDQIRQGIQLNKTPGAPESSALQPPPQSSEGLVGALMHVMQKRSRAIHSSDEGEDQAGDEDEDDEWDD
B3: DNA mismatch repair protein Mlh1 (Homo sapiens), P40692 (parent)
chain: MSFVAGVIRRLDETVVNRIAAGEVIQRPANAIKEMIENCLDAKSTSIQVIVKEGGLKLIQIQDNGTGIRKEDLDIVCERFTTSKLQSFEDLASISTYGFRGEALASISHVAHVTITTKTADGKCAYRASYSDGKLKAPPKPCAGNQGTQITVEDLFYNIATRRKALKNPSEEYGKILEVVGRYSVHNAGISFSVKKQGETVADVRTLPNASTVDNIRSIFGNAVSRELIEIGCEDKTLAFKMNGYISNANYSVKKCIFLLFINHRLVESTSLRKAIETVYAAYLPKNTHPFLYLSLEISPQNVDVNVHPTKHEVHFLHEESILERVQQHIESKLLGSNSSRMYFTQTLLPGLAGPSGEMVKSTTSLTSSSTSGSSDKVYAHQMVRTDSREQKLDAFLQPLSKPLSSQPQAIVTEDKTDISSGRARQQDEEMLELPAPAEVAAKNQSLEGDTTKGTSEMSEKRGPTSSNPRKRHREDSDVEMVEDDSRKEMTAACTPRRRIINLTSVLSLQEEINEQGHEVLREMLHNHSFVGCVNPQWALAQHQTKLYLLNTTKLSEELFYQILIYDFANFGVLRLSEPAPLFDLAMLALDSPESGWTEEDGPKEGLAEYIVEFLKKKAEMLADYFSLEIDEEGNLIGLPLLIDNYVPPLEGLPIFILRLATEVNWDEEKECFESLSKECAMFYSIRKQYISEESTLSGQQSEVPGSIPNSWKWTVEHIVYKALRSHILPPKHFTEDGNILQLANLPDLYKVFERC
partner: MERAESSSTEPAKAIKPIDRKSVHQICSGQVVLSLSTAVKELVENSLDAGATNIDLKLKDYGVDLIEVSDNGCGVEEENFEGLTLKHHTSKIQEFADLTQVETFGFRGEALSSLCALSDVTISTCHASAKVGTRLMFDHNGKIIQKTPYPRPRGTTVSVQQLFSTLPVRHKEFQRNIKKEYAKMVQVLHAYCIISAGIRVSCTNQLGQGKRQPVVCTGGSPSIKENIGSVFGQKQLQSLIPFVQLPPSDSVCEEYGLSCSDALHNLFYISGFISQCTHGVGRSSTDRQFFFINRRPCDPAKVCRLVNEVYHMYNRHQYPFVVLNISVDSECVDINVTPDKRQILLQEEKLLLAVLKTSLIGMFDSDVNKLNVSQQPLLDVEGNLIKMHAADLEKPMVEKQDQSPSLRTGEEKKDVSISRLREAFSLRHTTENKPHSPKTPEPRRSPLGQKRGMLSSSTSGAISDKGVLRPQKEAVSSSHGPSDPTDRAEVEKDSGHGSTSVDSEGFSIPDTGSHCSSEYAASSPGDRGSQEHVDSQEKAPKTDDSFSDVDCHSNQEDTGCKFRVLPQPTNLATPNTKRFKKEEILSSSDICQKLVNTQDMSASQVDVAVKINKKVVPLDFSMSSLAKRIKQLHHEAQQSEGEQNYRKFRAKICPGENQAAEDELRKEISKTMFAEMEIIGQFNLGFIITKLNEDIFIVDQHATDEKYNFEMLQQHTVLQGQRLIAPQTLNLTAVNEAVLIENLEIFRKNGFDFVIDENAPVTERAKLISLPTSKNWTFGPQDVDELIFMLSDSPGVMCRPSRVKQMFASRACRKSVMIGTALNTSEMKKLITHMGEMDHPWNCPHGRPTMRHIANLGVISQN

The first assay covers variants of B1. The following applies: with p73_human TP73, O15350.
F565L: the “effect of a mutation on the interaction” value is reported as “decreasing interaction strength”. Still for that read-out and setting: for I549T the value was “decreasing interaction strength”. Same read-out and setting: in the case of S580P it was “decreasing interaction strength”. Consider R594P, for which the “effect of a mutation on the interaction” value is recorded as “decreasing interaction strength”.

The variants in a further assay derive from B2. The note with it: with cdc42_human CDC42, P60953.
cdc42_human CDC42, P60953, sequence (P60953 whole entry, looked up): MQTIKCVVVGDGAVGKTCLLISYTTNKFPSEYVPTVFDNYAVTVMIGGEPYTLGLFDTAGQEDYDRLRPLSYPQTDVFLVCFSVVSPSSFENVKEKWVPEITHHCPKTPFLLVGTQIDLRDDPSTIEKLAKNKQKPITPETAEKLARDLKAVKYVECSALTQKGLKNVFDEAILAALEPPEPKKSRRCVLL
For I294T, the “effect of a mutation on the interaction” value was “decreasing interaction strength”. Still for that read-out and setting: in the case of E131K it was “with no effect”; in that of R41G, “with no effect”.

Another assay covers variants of B3. The following applies: with pms2_human PMS2, P54278.
For N338S, the “effect of a mutation on the interaction” value was “with no effect”. Still for that read-out and setting: for Q149H the value was “with no effect”; for I68N, “disrupting interaction strength”; for L259S, “with no effect”. On the same count and under the same terms, for H381Y the value was “with no effect”; for I107R, “disrupting interaction strength”. Same read-out and setting: for Y293D the value was “disrupting interaction strength”.
